The record followed here is US20040106557A1 (LICENTIA, published 2004).

The target in test [1] is T1, Prostate specific antigen (PSA), purified from human seminal fluid (human, UniProt P07288 25-261).
T1 construct: mature; Mostly captured on wells by MAb 5E4 (IFMA) or on the chip by MAb H117 (SPR); in solution in enzyme assays; also called free PSA; active PSA
As to the kind of experiment: phage display selection on PSA captured by MAb 5E4, 200 µM ZnCl2 in the panning buffer. Here is the method:
(§1) The screening of phage display peptide libraries was performed essentially as described by Koivunen et al. (21). Briefly, each phage library was separately screened with PSA captured on microtiter wells coated with the monoclonal antibody 5E4, which binds both free and complexed PSA (24). 33 nM PSA in TBS buffer containing 10 g/L BSA (BSA-TBS) was incubated in wells coated with MAb 5E4 for 1 h, then the wells were washed to remove unbound PSA. An aliquot of each phage library ([…] infectious particles) was added to the wells, and incubated for 3 h at 22° C. during the first round of panning and for 1 h during subsequent rounds. The phage solution was removed and the wells were washed with TBS containing 0.5% Tween 20. The panning was also performed in the prescence of 200 μM ZnCl2. The bound phage were eluted with 0.1 M glycine buffer, pH 2.2 and neutralized with 1 M Tris base. The eluted phage were amplified by infection of E. coli K91 kan cells, and purified by precipitation with polyethylene glycol. After three rounds of selection and amplification single stranded DNA from individual phage clones was prepared and the peptide sequences were determined by sequencing the relevant part of the viral DNA. Sequencing was performed with an ABI 310 Genetic analyzer and Dye Terminator Cycle Sequencing Core Kit (PE Applied Biosystems, Foster City, Calif., USA) using the oligonucleotide 5′ […] 3′ as a primer.

The target in test [2] is T1, Prostate specific antigen (PSA), …. The test is described as follows: cell-based or functional assay.
The target is the same in test [3]. The test is described as follows: cell-based or functional assay. This is another data set of the same source.
For test [4] the target is unchanged. As to the kind of experiment: GST-peptide IFMA, PSA captured by MAb 5E4, Eu-labelled anti GST tracer.
Test [5] has the same target. The test is described as follows: phage display, three rounds of selection on PSA captured by MAb 5E4. The procedure: as §1
For test [6] the target is unchanged. As to the kind of experiment: SPR, PSA captured by MAb H117, 10 µM Zn2+.
Test [7] shares this target. As to the kind of experiment: SPR, PSA captured by MAb H117, 30 µM Zn2+. On the technique in general: Surface plasmon resonance follows binding to a sensor surface in real time, without labels.
Test [8] shares this target. As to the kind of experiment: SPR, PSA captured by MAb H117, 1 µM Zn2+, single fit, 3.4 µM peptide.
The target is the same in test [9]. As to the kind of experiment: SPR, PSA captured by MAb H117, 10 µM Zn2+, single fit, 3.4 µM peptide.
Test [10] has the same target. The test is described as follows: SPR, PSA captured by MAb H117, 30 µM Zn2+, single fit, 3.4 µM peptide.
Test [11] shares this target. As to the kind of experiment: SPR, PSA captured by MAb H117, 0 µM Zn2+, average of 3 fits (3.4-8.5 µM analyte).
The target is the same in test [12]. The test is described as follows: SPR, GST-peptide injected over PSA captured by MAb H117; average of 3 concentrations.

The Kd is a measure of binding affinity in units of concentration. A lower Kd goes with tighter binding. The term koff denotes the first-order rate constant of dissociation. The low end stands for slow dissociation, the high end for fast dissociation. Usually kon stands for the second-order rate constant of association.

Ends that are not written are not given here.

B1: phage-displayed peptide Z-1 (fUSE5 phage clone) (peptide)
chain: CVTYCYGEVCYYC
notes: isolated with 200 µM ZnCl2 in the panning buffer; not shown: fUSE5 phage protein III and flanking residues
In the case of B1, in test [1], the binding result is on record as “binds”.
With CVAYCIEHHCWTC (also: 99mTc chelated between thiol sulfurs of reduced peptide) [Tc99m-labeled C4], the “decrease in PSA enzyme activity (S-2586, A405), 30-fold molar excess of peptide” value in [2] is ~50%.
Take CVAYCIEHHCWTC (other) [GST-C-4 (peptide C-4 expressed as glutathione S-transferase fusion protein)]: in test [3], the “50% stimulation” value was 0.57 µM. In [4], the “Maximal binding (CPS)” value stood at 790000 CPS.

B2: phage-displayed peptide D-2 (fUSE5 phage clone) (peptide)
chain: CLLYCHDACWWVC
notes: not shown: fUSE5 phage protein III and flanking residues
Regarding B2, in [5], the binding result is recorded as “binds”.

B3: phage-displayed peptide Z-7 (fUSE5 phage clone) (peptide)
chain: CVFDALYTFC
modifications: cysteine pairing not given here; also: displayed on fUSE5 phage protein III with flanking residues
notes: isolated with 200 µM ZnCl2; not shown: fUSE5 phage protein III and flanking residues
Turning to B3, the binding result in test [1] is listed as “binds”.

B4: phage-displayed peptide A-1 (fUSE5 phage clone) (peptide)
chain: CVFTSDYAFC
notes: as for B2
Regarding B4, the binding result in test [5] was “binds”.

B5: phage-displayed peptide Z-3 (fUSE5 phage clone) (peptide)
chain: CVQYCIGGDCWFC
modifications: cysteine pairing not given here; also: displayed on fUSE5 phage protein III
notes: as for B3
Turning to B5, in test [1], the binding result is on record as “binds”.

B6: phage-displayed peptide A-3 (fUSE5 phage clone) (peptide)
chain: CIFEPDYSYC
notes: as for B2
On to B6, for which the binding result in test [5] is on record as “binds”.

B7: phage-displayed peptide C-3 (fUSE5 phage clone) (peptide)
chain: CVAYCEEWECYVC
notes: as for B2
For the molecule B7, in test [5], the binding result is listed as “binds”.

B8: phage-displayed peptide C-5 (fUSE5 phage clone) (peptide)
chain: CVSYCDGLQCWMC
notes: as for B2
B8: in test [5], the binding result was “binds”.

B9: phage-displayed peptide A-2 (fUSE5 phage clone) (peptide)
chain: CVIYDGNHWC
notes: as for B2
On to B9, for which, in test [5], the binding result is “binds”.

B10: phage-displayed peptide A-4 (fUSE5 phage clone) (peptide)
chain: CVFDDLYSFC
notes: as for B2
As to B10, the binding result in [5] was “binds”.

B11: phage-displayed peptide B-2 (fUSE5 phage clone) (peptide)
chain: CVFAHNYDYLVC
notes: as for B2
As to B11, the binding result in [5] is reported as “binds”.

B12: phage-displayed peptide Z-5 (fUSE5 phage clone) (peptide)
chain: CVAYCISSLCYYC
modifications: cysteine pairing not given here; also: displayed on fUSE5 phage protein III
notes: as for B3
In the case of B12, the binding result in test [1] is listed as “binds”.

B13: phage-displayed peptide D-1 (fUSE5 phage clone) (peptide)
chain: CLSTCAQSCRISC
notes: as for B2
Regarding B13, the binding result in test [5] was “binds”.

B14: phage-displayed peptide C-1 (fUSE5 phage clone) (peptide)
chain: CVSYCLFEFCYVC
notes: as for B2
On to B14, for which the binding result in test [5] is listed as “binds”.

B15: phage-displayed peptide Z-6 (fUSE5 phage clone) (peptide)
chain: CVWYTGNTWC
modifications: not fully specified; cysteine pairing not given here; also: displayed on fUSE5 phage protein III with flanking residues
notes: as for B3
Turning to B15, in [1], the binding result is listed as “binds”.

B16: phage-displayed peptide B-1 (fUSE5 phage clone) (peptide)
chain: CTFSVDYKYLMC
notes: as for B2
For B16, the binding result in [5] was “binds”.

B17: phage-displayed peptide C-4 (fUSE5 phage clone) (peptide)
chain: CVAYCIEHHCWTC
notes: as for B2
As for B17, the binding result in [5] was “binds”.

B18: phage-displayed peptide C-2 (fUSE5 phage clone) (peptide)
chain: CVEYCWEGSCYVC
notes: as for B2
As for B18, the binding result in [5] is reported as “binds”.

B19: phage-displayed peptide Z-10 (fUSE5 phage clone) (peptide)
chain: CVPYLGLWLC
modifications: cysteine pairing not given here; also: displayed on fUSE5 phage protein III with flanking residues
notes: as for B3
For B19, the binding result in test [1] was “binds”.

B20: phage-displayed peptide Z-4 (fUSE5 phage clone) (peptide)
chain: CVVYCDSMKCWTC
modifications: cysteine pairing not given here; also: displayed on fUSE5 phage protein III
notes: as for B3
With B20, the binding result in [1] is “binds”.

B21: phage-displayed peptide Z-2 (fUSE5 phage clone) (peptide)
chain: CAAYCVAGLCYGC
modifications: cysteine pairing not given here; also: displayed on fUSE5 phage protein III
notes: as for B3
For B21, the binding result in test [1] is listed as “binds”.

B22: phage-displayed peptide Z-11 (fUSE5 phage clone) (peptide)
chain: CMFDPMYMWMTC
modifications: cysteine pairing not given here; also: displayed on fUSE5 phage protein III with flanking residues
notes: as for B3
As to B22, in [1], the binding result is “binds”.

B23: phage-displayed peptide Z-8 (fUSE5 phage clone) (peptide)
chain: CVIYPGNVWC
modifications: cysteine pairing not given here; also: displayed on fUSE5 phage protein III with flanking residues
notes: as for B3
As to B23, the binding result in [1] is given as “binds”.
With CVFAHNYDYLVC (other) [GST-B-2 (peptide B-2 expressed as glutathione S-transferase fusion protein)], the “minimum peptide concentration affecting the activity” value in test [2] was found to be 300 nM. Further, in test [3], the “50% stimulation” value came out at 1.7 µM. For the same molecule, the “increase (fold) of affinity against 0 µM Zn2+” value in test [6] is 6 fold; in test [7] it was 4.7 fold. The Kd in test [8] was found to be 3.1 µM; in test [9], 600 nM; in [10] it was 800 nM; in test [11], 3.5 µM; in test [12], 3.5 µM. In addition, the koff in test [8] is 0.0035 s⁻¹; in [9], 0.0016 s⁻¹; in test [10], 0.0006 s⁻¹; in [11] it was 0.057 s⁻¹; in [12] it was 0.057 s⁻¹. The kon in test [9] amounted to 2650 M⁻¹ s⁻¹; in test [10], 830 M⁻¹ s⁻¹; in test [11], 16300 M⁻¹ s⁻¹; in test [12] it was 16300 M⁻¹ s⁻¹. For the same molecule, the “Maximal binding (CPS)” value in [4] turned out to be 428000 CPS.

B24: phage-displayed peptide B-3 (fUSE5 phage clone) (peptide)
chain: CRFDKEYRTLVC
notes: as for B2
Turning to B24, the binding result in test [5] is given as “binds”.
